Data on 21 variants can be found in the RNAGym collection of RNA variant scans (doi:10.1073/pnas.2313332121).

Sequences and labels used below:
B1: TPR t1 (parent)
chain: GACCAAUCUGCCCUCAGAGCUCGAGAACAUCUUCGGAUGCAGAGGAGGCAGGCUUCGGUGGCGCGAUAGCGCCAACGUCCUCAACCUCCAAUGCAUCCCACCACAUGAUGAUGCCUGAAGAGCCUUGGUUUUUUG

In this data set the parent is B1. In words: polymerase ribozyme fitness, log enrichment relative to wild type (log ratio); higher = more active; in vitro selection for triplet polymerase activity. A digest of the protocol:
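Input and output libraries were sequenced on Illumina after a single in vitro selection round, run in triplicate on PCR-built, transcribed mutant libraries of each subunit of a heterodimeric triplet polymerase ribozyme. Selection annealed libraries to a biotinylated primer, the partner subunit and triplets, incubated them frozen at −7 °C, then gel-excised extended constructs for streptavidin-bead capture and RT-PCR. Genotypes with ≥10 input reads and ≥1 read per output were kept. Fitness is the logarithm, taken in base 2, of genotype enrichment divided by wild-type enrichment, using inverse-variance-weighted replicate averages.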
On to GACCAAUCUGCGCUCAGAGCUCGAGAACAUCUUCGGAUGCAGAGGAGGCAGGCUUCGGUGGCGCGAUAGCGCCAACGGCCUCAACCUCCAAUGCAUCCCACUACAUGAUGAUGCCUGAAGAGCCUUGGUUUUUUG [C12G U78G C102U], for which the “polymerase ribozyme fitness (log ratio)” value is -1.99.

Regarding GACCAAUCUGCGCUCAGAGCUCGAGAACAUCUUCGGAUGCAGAGGAGGCAGGCUUCGGUGGCGCGAUAGCGCCAACGUCCUCAACCUCCAAUGCAUCCCACCACAUGAUGAUGCCUGAAGAGCCUUGGUCUUUUG [C12G U130C], the “polymerase ribozyme fitness (log ratio)” value turned out to be 0.663.

Consider GACCAAUCUGCGCUCAGAGCCCGAGAACAUCUUCGGAUGCAGAGGAGGCAGGCUUCGGUGGCGCGAUAGCGCCAACGUCCUCAACCUCCAAUGCAUCCCAUCACUUGAUGAUGCCUGAAGAGCCUUGGUUUUUUG [C12G U21C C101U A105U], for which the “polymerase ribozyme fitness (log ratio)” value is -4.94.

On to GACCAAUCUGCUCUCAGGCCUCGAGAACAUCUUCGGUUGCAGAGGAGGCAGGCUUCGGUGGCGCGAUAGCGCCAACGUCCUCAACCUCCAAUGCAUCCCACCACAUGAUGAUGCCUGUAGGGCCUUGGUUUUUUG [C12U A18G G19C A37U A118U A121G], for which the “polymerase ribozyme fitness (log ratio)” value was -1.65.

GACCAAUCUGCUCUCGGAGUUCGAGAACAUCUUCGGAUGCAGAGGAGGCAGGCUUCGGUGGCGCGAUAGCGCCAACGUCCUCAUCCUCCAAUGCAUCCCACCACAUGAUGAGUCCUGAAGAGCCUUGGUUUUUUG [C12U A16G C20U A84U U112G G113U]: the “polymerase ribozyme fitness (log ratio)” value is -0.951.

On to GACCAAUCUGCUCUCAGAGCUCGGGAACAUCUUCGAAUGCAGAGGAGGCAGGCUUCGGUGGCACGAUAGCGCCAACGUCCUCAACCUCCAAUGCAUCCCACCACAUGAUGAUGCCUGAAGAGCCUUGGUUUUUUG [C12U A24G G36A G63A], for which the “polymerase ribozyme fitness (log ratio)” value is -2.54.

As for GACCAAUCUGCGCUCAGAGCUCGAGAACAUCUUCGGAUGCAGAGGAGGCAGGCUUCGGUGGCGCGAUAGCGCCAACGUCCUCAACCUCCAAUGCAUCCCACCACAUGAUGAUGCCAGAAGAGCCUUGGUUUUUUG [C12G U116A], the “polymerase ribozyme fitness (log ratio)” value is -3.29.

Regarding GACCAAUCUGCGCACAGAGCUCGAGAACAUCUUCGGAUGCAGAGGAGGCAGGCUUCGGUGGAGCGAUAGCGCCAACGUCCUCAACAUCCAAUGCAUCCCACAACAUGAUGAUGCCUGAACAGCCUUGGAUUUUUG [C12G U14A C62A C86A C102A G120C U129A], the “polymerase ribozyme fitness (log ratio)” value was -7.34.

In the case of GACCAAUCUGCGCUCAGAGCUCGAGAACAUCUUCGGAUGCAGAGGAGGCAGGCUAGGGUGGCGCGAUAGCGCCAACGUCCCCAACCUCCAAUGCAUCCCACCACAUGAUGAUGCCUGAAGAGCCUUGGUUUUUUG [C12G U55A C56G U81C], the “polymerase ribozyme fitness (log ratio)” value was -1.29.

In the case of GACCAAUCUGCGCUCAGAGCUCGAGAACACCUUCGGAUGCAGAGGAGGCAGGCUUCGGUGGCGCGAUAGCGCCAACGUCCUCAACCUCCAAUGCAUCCCACCACAUGAUGAUGCCUGAAGAGCCUUGGUUUUUUG [C12G U30C], the “polymerase ribozyme fitness (log ratio)” value was -2.82.

Consider GACCAAUCUGCGCUCAGAGCUCGAGAACAUCUUCGGAUGCAGAGGAGGCAGGCUUCGGUGGCGCGAUAGCGCCAACGUCCUCAACCUCCAAUGCACCCCACCACAUGAUGAUGCCUGAAGAGCCUUGGUUUUUUG [C12G U96C], for which the “polymerase ribozyme fitness (log ratio)” value is 0.043.

Turning to GACCAAUCUGCUCUCAGAGCUCGAGGACAUCUUCGGAUGCAGAGGAGGCAGGCUUUGGUGGCGCGAUAGCGUCAACGUCCUCAACCUCCAAUGCAUCCCACCACAUGAUGAUGCCUAAAGAGCCGUGGUUUUUUG [C12U A26G C56U C72U G117A U125G], the “polymerase ribozyme fitness (log ratio)” value is -2.09.

Consider GACCAAUCUGCGCUCAGAGCUCGAGAACAUCUUCGGAUGCAGAGGAGGCAGGCUCCGGUGGCGCGAUAGCGCCAACGUCCUCAACCUCCCAUGCAUCCCACCACAUGAUGAUGCCUGAAGAGCCUUGGUUUUUUG [C12G U55C A90C], for which the “polymerase ribozyme fitness (log ratio)” value was -1.45.

On to GACCAAUCUGCGCUCAGAGCUCGAGAACAUCUUCGGAGGCAGAUGAGGCAGGCUUCGGUGGCGCGAUAGCGCCAACGACCUCAACCUCCAAUGCAUCCCACCACAUGAUGAUGCCUGAAGAGCCUUGGUUUUUUG [C12G U38G G44U U78A], for which the “polymerase ribozyme fitness (log ratio)” value was -1.53.

For the variant GACCAAUCUGCUCUCAGCGCUCGAGAACAUCUUCGGAUGCAGAGGAGGCAGGCUUCGGUGGCGCGAUAGUGCCAUCGUCCUCAACCUCCAAUGCAUCCCACCACAUGAUGAUGCCUGAAGAGCCGUGGUUUUUUG [C12U A18C C70U A75U U125G], the “polymerase ribozyme fitness (log ratio)” value is -5.05.

Regarding GACCAAUCUGCUCUCAGUGCUCGAGAACAUCUUCGGAUGCAGAGGAGGCAGGCUUCGGUGGCGCGAUAGCGCCAACGUCCUCAACCUCCAAUGCAUCCCACCACAUGAUGAUGACUGAAGAGCCUUGAUAUUUUG [C12U A18U C114A G128A U130A], the “polymerase ribozyme fitness (log ratio)” value is -3.

Regarding GACCAAUCUGCGCUCAGAGCGCGAGAACAUCUUCGGAUGCAGAGGAGGCAGGCUUCGGUGGCGCGAUAGCGCCAACGUCCUCAACCUCCAAUGCAUCCCACCACAUGAUGUUGCCUGAAGAGCCUUGGUUUUUUG [C12G U21G A111U], the “polymerase ribozyme fitness (log ratio)” value is -3.89.

As to GACCAAUCUGCGCUCAGAGCUCGAGAACAUCUUCGGAUGCAGAGGAGGCAGGCUUCGGUGGCGCGAUAGCGCCAACGUCCUCAACCUCCAAUGCAUCCCACCACAUGAAGAUGCCUGAAGAGCCUUGGUUUUUUG [C12G U109A], the “polymerase ribozyme fitness (log ratio)” value was -4.88.

Consider GACCAAUCUGCUCUCAGGGCUCGAGAACAUCUUCGGAUGCUGAGGACGCAGGCUUCGGUGGCGCGAUAGCGUCAACGUCCUCAACCUCCAAUGCAUCCCACCACAUGAGGAUGCCUGAAGAGCGUUGGUUUUUUG [C12U A18G A41U G47C C72U U109G C124G], for which the “polymerase ribozyme fitness (log ratio)” value was -3.69.

Turning to GACCAAUCUGCUCUCAGAGCUCGAGAACAUCUUCGGAUGCAGAGGAGGCAGGCUUCGGUGGCGCGAUAGCGCCAACGUCCUCAACCUCCAAUGCAUCCCACCACAUGAUGAUGCCUGAAGAGCCUUGGUUUUUUG [C12U], the “polymerase ribozyme fitness (log ratio)” value was 0.39.

As to GACCAAUCUGCGCUCAGAGCUCGAGAACAGCUUCGGAUGCAGAGGAGGCAGGCUUCGGUGGCGCGAUAGCGGCAACGUCCUCAACCUCCAAUGCAUCCCAACACAAGAUGAUGCCUGAUGAGUCUUGGUUUUUUG [C12G U30G C72G C101A U106A A119U C123U], the “polymerase ribozyme fitness (log ratio)” value was -5.26.
